Data from PMC8319308.

Biological target: Gx-SB (protein G adapter domain fused to the small BiT fragment of split NanoLuc) (UniProt P06654)
Experiment: other; 4C2-SB (SB1) conjugate with 19C7-LB; LB-SB affinity

Gx-LB (protein G adapter domain fused to the large BiT fragment of split NanoLuc) (from UniProt P06654)
Kd: 2500 nM
